Measured values taken from patent USRE48522 (SURVAC, dated 2021).

Experiments:
[1] = molecular target: HLA-A11 (HLA-A*1101) (human); test: assembly assay: HLA stabilisation, TAP-deficient cell lysate, W6/32 IP, IEF gel
[2] = molecular target: HLA-A3 (HLA-A*0301) (human); test: as above
[3] = molecular target: T1, HLA-A2 (HLA-A*0201) (human); test: as above
T1 construct: MHC class I molecule to which the peptide is added in the assembly assay (T2 cells); folded molecules are immunoprecipitated with conformation-dependent antibody

[4] = molecular target: HLA-A1 (HLA-A*0101) (human); test: as above
[5] = molecular target: HLA-B35 (human); test: assembly assay: HLA-B35 stabilisation, T2-B35 lysate, W6/32 IP, IEF gel
[6] = molecular target: HLA-B35 (human); test: assembly assay: HLA-B35 stabilisation; against sur51-59
[7] = molecular target: T1, HLA-A2 (HLA-A*0201); test: assembly assay: HLA-A2 stabilisation, T2 cells, IP, IEF gel
[8] = molecular target: HLA-B35 (human); test: assembly assay: HLA-B35 stabilisation; against sur46-54

## ELTLGEFLK [Sur 95-103]
[1]
  binding result: no binding (tested: 40, 4, 0.4, 0.04 µM)
[2]
  C50: > 100 µM

## LAQCFFCFKEL [Sur54-64]
[3]
  binding result: no binding (tested: 100, 10, 1, 0.1, 0.01 µM)

## RITREEHKK [Sur2b-A3-1]
[2]
  binding result: no binding (tested: 100, 10, 1, 0.1, 0.01 µM)

## KLDRERAKNKI [Sur103-113]
[3]
  binding result: no binding (tested: 100, 10, 1, 0.1, 0.01 µM)

## ENEPDLAQCF [Sur49-58]
[4]
  binding result: no binding (tested: 40, 4, 0.4, 0.04 µM)

## ENEPDLAQCY (Sur49-58 with Y at the C-terminus) [sur49Y9]
[4]
  binding result: no binding (tested: 40, 4, 0.4, 0.04 µM)

## TIRRKNLRK [SurEx3-A3-1]
[2]
  C50: 0.5 µM

## MAEAGFIHY (Sur38-46 with C changed to Y at P9) [Sur38Y9]
[4]
  C50: 0.8 µM

## MAEAGFIHC (also called Survivin38-46) [Sur38-46]
[4]
  binding result: no binding (tested: 40, 4, 0.4, 0.04 µM)

B1: Sur51Y9 (peptide)
peptide: EPDLAQCFY
notes: Analogue of survivin51-59 with the C-terminal F replaced by Y
[5]
  C50: 1.5 µM
[6]
  fold higher affinity relative to the native peptide: 5 to 10 fold

## EPDLAQCFF [Sur51-59 (Survivin51-59)]
[5]
  C50: 13 µM
[4]
  binding result: no binding (tested: 40, 4, 0.4, 0.04 µM)

B2: Sur13K9 (peptide)
peptide: FLKDHRISTK
notes: Sur13-22 with the C-terminal F replaced by K
[2]
  binding result: no binding (tested: 100, 10, 1, 0.1, 0.01 µM)

## QFEELTLGEF (also called Survivin92-101) [Sur92-101]
[4]
  C50: 2 µM

## QSEELTLGEF (Sur92-101 with S at position 2) [Sur92S2]
[4]
  C50: 100 µM

## QTEELTLGEF (Sur92-101 with T at position 2) [Sur92T2]
[4]
  C50: 2 µM

## QFEELTLGEY (Sur92-101 with Y at the C-terminus) [sur92Y9]
[4]
  binding result: no binding (tested: 40, 4, 0.4, 0.04 µM)

## LTLGEFLKL (also called Sur96-104) [Sur1 (Survivin96-104)]
[7]
  C50: > 100 µM

B3: Sur1M2 (peptide)
peptide: LMLGEFLKL
notes: Analogue of survivin96-104 (Sur1) with T at position 2 replaced by M; also called modified survivin96-104
[7]
  C50: 1 µM

B4: Sur1L2 (peptide)
peptide: LLLGEFLKL
notes: Analogue of survivin96-104 (Sur1) with T at position 2 replaced by L
[7]
  C50: 1 µM

## FEELTLGEF (also called Survivin93-101) [Sur93-101]
[4]
  C50: > 100 µM

## FEELTLGEY (Sur93-101 with Y at the C-terminus) [sur93Y9]
[4]
  binding result: no binding (tested: 40, 4, 0.4, 0.04 µM)

## FTELTLGEF (Sur93-101 with T at position 2) [Sur93T2]
[4]
  C50: 1 µM

## FSELTLGEF (Sur93-101 with S at position 2) [Sur93S2]
[4]
  C50: 30 µM

## PTENEPDLAY (Sur47-56 with Q changed to Y at P10) [Sur47Y10]
[4]
  C50: 0.4 µM

## PTENEPDLAQ (also called Survivin47-56) [Sur47-56]
[4]
  binding result: no binding (tested: 40, 4, 0.4, 0.04 µM)

B5: Sur113L2 (peptide)
peptide: ILKETNNKKK
notes: Sur113-122 with A at position 2 replaced by L
[2]
  C50: > 100 µM

## IAKETNNKKK [Sur 113-122]
[1]
  binding result: no binding (tested: 40, 4, 0.4, 0.04 µM)
[2]
  binding result: no binding (tested: 100, 10, 1, 0.1, 0.01 µM)

## RISTFKNWPK (Sur18-27 with F changed to K at P10) [Sur18K10]
[2]
  C50: 0.02 µM

## RISTFKNWPF (also called Survivin18-27) [Sur 18-27]
[1]
  binding result: no binding (tested: 40, 4, 0.4, 0.04 µM)
[2]
  binding result: no binding (tested: 100, 10, 1, 0.1, 0.01 µM)

## TLPPAWQPFL [Sur8 (Survivin5-14)]
[7]
  C50: 30 µM

## FLKLDRERAK [Sur 101-110]
[1]
  binding result: no binding (tested: 40, 4, 0.4, 0.04 µM)
[2]
  binding result: no binding (tested: 100, 10, 1, 0.1, 0.01 µM)

## CPTENEPDL [Sur46-54 (Survivin46-54)]
[5]
  C50: 20 µM

## KIAKETNNKK [Sur 112-121]
[1]
  C50: > 100 µM
[2]
  C50: 1 µM

## KIAKETNNK [Sur 112-120]
[1]
  C50: 1 µM
[2]
  C50: 2 µM

## PTLPPAWQPFL [Sur4-14]
[3]
  binding result: no binding (tested: 100, 10, 1, 0.1, 0.01 µM)

## ETAKKVRRAI [Sur10 (Survivin126-135)]
[7]
  binding result: no binding

## DLAQCFFCFK (also called Survivin53-62) [Sur 53-62]
[1]
  C50: 5 µM
[2]
  C50: 100 µM

## PTIRRKNLRK [SurEx3-A3-2]
[2]
  binding result: no binding (tested: 100, 10, 1, 0.1, 0.01 µM)

## KLDRERAKNK [Sur 103-112]
[1]
  binding result: no binding (tested: 40, 4, 0.4, 0.04 µM)
[2]
  binding result: no binding (tested: 100, 10, 1, 0.1, 0.01 µM)

## RAIEQLAAM [Sur2 (Survivin133-141)]
[7]
  binding result: no binding

B6: Sur54L2 (peptide)
peptide: LLQCFFCFK
notes: Sur54-62 with A at position 2 replaced by L
[2]
  C50: 1 µM

B7: Sur46Y9 (peptide)
peptide: CPTENEPDY
notes: Analogue of survivin46-54 with the C-terminal L replaced by Y
[8]
  fold higher affinity relative to the native peptide: 5 to 10 fold
[5]
  C50: 4 µM

## TAKKVRRAI [Sur7 (Survivin127-135)]
[7]
  binding result: no binding

## FLKLDRERA [Sur6 (Survivin101-109)]
[7]
  C50: 30 µM

## SVKKQFEEL [Sur5 (Survivin88-96)]
[7]
  binding result: no binding

## DLAQCFFCF [Sur 53-61]
[1]
  binding result: no binding (tested: 40, 4, 0.4, 0.04 µM)
[2]
  binding result: no binding (tested: 100, 10, 1, 0.1, 0.01 µM)

B8: Sur53K9 (peptide)
peptide: DLAQCFFCK
notes: Sur53-61 with the C-terminal F replaced by K
[2]
  binding result: no binding (tested: 100, 10, 1, 0.1, 0.01 µM)

## CAFLSVKKQF [Sur 84-93]
[1]
  binding result: no binding (tested: 40, 4, 0.4, 0.04 µM)
[2]
  binding result: no binding (tested: 100, 10, 1, 0.1, 0.01 µM)

## KVRRAIEQL [Sur3 (Survivin130-138)]
[7]
  C50: > 100 µM

## LKDHRISTF [Sur14-22]
[4]
  binding result: no binding (tested: 40, 4, 0.4, 0.04 µM)

## LKDHRISTY (Sur14-22 with Y at the C-terminus) [sur14Y9]
[4]
  binding result: no binding (tested: 40, 4, 0.4, 0.04 µM)

## ELTLGEFLKL (also called Sur95-104) [Sur9 (Survivin95-104)]
[7]
  C50: 10 µM

## TPERMAEAGF (also called sur34-46 (as printed once)) [Sur34-43 (Survivin34-43)]
[5]
  C50: > 100 µM
[4]
  binding result: no binding (tested: 40, 4, 0.4, 0.04 µM)

## TPERMAEAGY (Sur34-43 with Y at the C-terminus) [sur34Y9]
[4]
  binding result: no binding (tested: 40, 4, 0.4, 0.04 µM)

## SVKKQFEELTL [Sur88-98]
[3]
  binding result: no binding (tested: 100, 10, 1, 0.1, 0.01 µM)

## LPPAWQPFL [Sur6-14 (Survivin6-14)]
[5]
  C50: > 100 µM

B9: Sur5K9 (peptide)
peptide: TLPPAWQPK
notes: Sur5-13 with the C-terminal F replaced by K
[2]
  C50: 2 µM
